Key:
Format in all cases: cell-based, human
IL-8 = IL-8 production by keratinocytes (ELISA); conditions: HaCaT and HEKn cells subjected to immune stimuli, ELISA
Description: (§1) To measure the concentrations of proinflammatory cytokines secreted by keratinocytes, 2×10^4 cells were seeded in 96-well plates. Cells were incubated for 24 hours and then treated with 50 μg/ml LPS, 100 ng/ml human TNF-α, 100 or 200 ng/ml human IL-17A, 200 ng/ml human IL-22, 100 ng/ml human IL-23, or 50 ng/ml IFN-γ at 37° C. for 48 hours. In addition, the MEK inhibitor PD98059 was added along with stimulation by LPS or IL-17A (48 hours). The supernatants were then collected and analyzed by ELISAs, which were performed using a specific combination of paired antibodies (capture and detection antibodies).

galectin-7 = test: Galectin-7 expression in keratinocytes (real-time PCR, immunoblot); conditions: HaCaT cells, treated with cytokines for 2 days, immunoblot
Description: Human keratinocyte cell line HaCaT was maintained at 37° C. in Dulbecco's modified Eagle's medium (DMEM) supplemented with 10% of fetal bovine serum (FBS), 2 mM glutamine, 100 U/ml penicillin and 100 μg/ml streptomycin. Short hairpin RNA (shRNA) reagents were obtained from the National RNAi Core Facility located at the Institute of Molecular Biology and Genomic Research Center, Academia Sinica, supported by the National Core Facility Program for Biotechnology Grants of NSC. Four shRNAs with clone IDs of TRCN0000057393, TRCN0000057394, TRCN0000057395, and TRCN0000057396 were used to generate stable galectin-7 knockdown HaCaT clones. HaCaT cells were infected with one of the four shRNA-expressing lentiviruses and puromycin was employed to select stable cell clones after 3 days of infection. After puromycin selection, four individual pooled clones were cultured in puromycin-free medium for 2 weeks before further analysis. […]
Cells were harvested and lysed in RIPA lysis buffer containing 1% of Triton X-100 and a protease inhibitor cocktail, and total protein concentrations were measured with a protein assay kit. Proteins in the samples of the lysates with the same amounts of total protein were separated by sodium dodecyl sulfate polyacrylamide gel electrophoresis (SDS-PAGE) and analyzed by immunoblotting. […] Protein quantification was performed by software. […]

IL-6 = IL-6 production by keratinocytes (ELISA); conditions: HaCaT and HEKn cells subjected to immune stimuli, ELISA
Description: as §1

Molecule | IL-8 production (IL-8) | galectin-7 protein expression (galectin-7) | IL-6 production (IL-6)
IL-23: cytokine known to promote psoriatic inflammation (protein, UniProt Q9NPF7 20-189; P29460 23-328, looked up) Interleukin-23 subunit alpha: RAVPGGSSPAWTQCQQLSQKLCTLAWSAHPLVGHMDLREEGDEETTNDVPHIQCGDGCDPQGLRDNSQFCLQRIHQGLIFYEKLLGSDIFTGEPSLLPDSPVGQLHASLLGLSQLLQPEGHHWETQQIPSLSPSQPWQRLLLRFKILRSLQAFVAVAARVFAHGAATLSP Interleukin-12 subunit beta: IWELKKDVYVVELDWYPDAPGEMVVLTCDTPEEDGITWTLDQSSEVLGSGKTLTIQVKEFGDAGQYTCHKGGEVLSHSLLLLHKKEDGIWSTDILKDQKEPKNKTFLRCEAKNYSGRFTCWWLTTISTDLTFSVKSSRGSSDPQGVTCGAATLSAERVRGDNKEYEYSVECQEDSACPAAEESLPIEVMVDAVHKLKYENYTSSFFIRDIIKPDPPKNLQLKPLKNSRQVEVSWEYPDTWSTPHSYFSLTFCVQVQGKSKREKKDRVFTDKTSATVICRKNASISVRAQDRYYSSSWSEWASVPCS | only IL-17A (FIG. 2), TNF-α, and LPS (data not shown) induced | modest effects | only IL-17A (FIG. 2), TNF-α, and LPS (data not shown) induced
IL-22: immune stimulus (protein, UniProt Q9GZX6 34-179, looked up) Interleukin-22: APISSHCRLDKSNFQQPYITNRTFMLAKEASLADNNTDVRLIGEKLFHGVSMSERCYLMKQVLNFTLEEVLFPQSDRFQPYMQEVVPFLARLSNRLSTCHIEGDDLHIQRNVQKLKDTVKKLGESGEIKAIGELDLLFMSLRNACI | only IL-17A (FIG. 2), TNF-α, and LPS (data not shown) induced | – | only IL-17A (FIG. 2), TNF-α, and LPS (data not shown) induced

From patent US11286304B2, “Anti-galectin-7 antibody, kit comprising the same, and uses thereof” (Academia Sinica, priority 2018, dated 2022)
